Test results as given in paper PMC7016142, “Tripartite phase separation of two signal effectors with vesicles priming B cell responsiveness” (Nature Communications, 2020).
Residue numbers refer to the chain shown, from its start. Names may count otherwise. Each block holds one binder with its values, some of them ahead of it.

Assays:
Settings in all cases: both partners purified
[1] = biological target: T1, CIN85_(1-333) (human, UniProt Q96B97 1-333, 15N-labeled in the PRE experiment; unlabeled in the HSQC titration); experiment: NMR paramagnetic relaxation enhancement (1H R2-PRE); 15N-labeled CIN85_(1-333) mixed with MTSL-tagged SLP65 constructs at 10:1 molar ratio; TROSY with two-point delay; constructs without MTSL with 1 mM TCEP as diamagnetic reference; 293 K
T1 construct: CIN85 (SH3KBP1), human, residues 1-333 with the three N-terminal SH3 domains, lacking the C-terminal coiled coil; also called monomeric CIN85; source: E. coli BL21(DE3), purified (Ni-NTA, TEV cleavage, size exclusion); not shown: His7, N-terminal, cleaved
T1 sequence (looked up): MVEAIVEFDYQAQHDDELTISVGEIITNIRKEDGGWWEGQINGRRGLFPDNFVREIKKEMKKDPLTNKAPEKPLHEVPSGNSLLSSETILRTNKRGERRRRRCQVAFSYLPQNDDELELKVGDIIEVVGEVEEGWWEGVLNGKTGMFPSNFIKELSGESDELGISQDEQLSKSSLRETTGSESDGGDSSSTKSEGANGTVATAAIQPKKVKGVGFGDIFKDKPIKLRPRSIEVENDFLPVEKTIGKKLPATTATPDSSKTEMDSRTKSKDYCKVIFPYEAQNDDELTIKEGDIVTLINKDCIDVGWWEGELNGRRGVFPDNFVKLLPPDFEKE

[2] = biological target: T1, CIN85_(1-333); experiment: NMR titration; 15N-HSQC of 60 µM 15N-labeled SLP65_(1-330) titrated with increasing amounts of unlabeled CIN85_(1-333); 293 K; 20 mM HEPES pH 7.2, 100 mM NaCl, 1 mM TCEP, 0.5 mM Pefabloc
[3] = biological target: T2, CIN85Δ57 (human, UniProt Q96B97 1-665, deletion of residues 369-425); experiment: NMR titration; 15N-HSQC of 15 µM 15N-labeled SLP65_(1-330) with CIN85Δ57 added, without or with SUVs (phase-separated samples); peak intensity ratio over SLP65 only; 293 K; 20 mM HEPES pH 7.2, 100 mM NaCl, 1 mM TCEP
T2 construct: CIN85 (SH3KBP1), human, amplified with primers from the start ATG to the stop codon, residues 369-425 deleted; The tag and its cleavage follow only from 'Protein expression and purification was performed as described above'; also called trimeric CIN85Δ57; source: E. coli, modified pET28a vector, purified as the other constructs; not shown: His7, N-terminal, cleaved

binding result [1]: binds
B1: SLP65_(40-330), MTSL-tagged at C271 (domain or fragment, human, UniProt Q8WV28 40-330, looked up)
chain: KVKAPPSVPRRDYASESPADEEEQWSDDFDSDYENPDEHSDSEMYVMPAEENADDSYEPPPVEQETRPVHPALPFARGEYIDNRSSQRHSPPFSKTLPSKPSWPSEKARLTSTLPALTALQKPQVPPKPKGLLEDEADYVVPVEDNDENYIHPTESSSPPPEKAPMVNRSTKPNSSTPASPPGTASGRNSGAWETKSPPPAAPSPLPRAGKKPTTPLKTTPVASQQNASSVCEEKPIPAERHRGSSHRQEAVQSPVFPPAQKQIHQKPIPLPRFTEGGNPTVDGPLPSFSS
modifications: nitroxide spin label MTSL on C271
notes: SLP65 (BLNK), human, residues 40-330, naturally contains a single cysteine (C271); also called MTSL-tagged SLP65 constructs; source: E. coli BL21(DE3), purified (Ni-NTA, TEV cleavage, size exclusion); not shown: His7, N-terminal, cleaved

binding result [1]: binds
B4: SLP65_(40-330) (C271A, Q302C), MTSL-tagged (domain or fragment, human, UniProt Q8WV28 40-330, looked up)
chain: B1 chain with C232A, Q263C
modifications: nitroxide spin label MTSL on the single cysteine (Q302C)
notes: SLP65 (BLNK), human, residues 40-330; also called MTSL-tagged SLP65 constructs; source: E. coli BL21(DE3), purified (Ni-NTA, TEV cleavage, size exclusion); not shown: His7, N-terminal, cleaved

More lines, now with the values behind:

B2: SLP65_(40-330) (C271A, S141C), MTSL-tagged (domain or fragment, human, UniProt Q8WV28 40-330, looked up)
chain: B1 chain with S102C, C232A
modifications: nitroxide spin label MTSL on the single cysteine (S141C)
notes: as for B4
binding result [1]: binds

B3: SLP65_(40-330) (C271A, S236C), MTSL-tagged (domain or fragment, human, UniProt Q8WV28 40-330, looked up)
chain: B1 chain with S197C, C232A
modifications: nitroxide spin label MTSL on the single cysteine (S236C)
notes: as for B4
binding result [1]: binds

B5: SLP65_(1-330) (domain or fragment, human, UniProt Q8WV28 1-330, looked up)
chain: MDKLNKITVPASQKLRQLQKMVHDIKNNEGGIMNKIKKLKVKAPPSVPRRDYASESPADEEEQWSDDFDSDYENPDEHSDSEMYVMPAEENADDSYEPPPVEQETRPVHPALPFARGEYIDNRSSQRHSPPFSKTLPSKPSWPSEKARLTSTLPALTALQKPQVPPKPKGLLEDEADYVVPVEDNDENYIHPTESSSPPPEKAPMVNRSTKPNSSTPASPPGTASGRNSGAWETKSPPPAAPSPLPRAGKKPTTPLKTTPVASQQNASSVCEEKPIPAERHRGSSHRQEAVQSPVFPPAQKQIHQKPIPLPRFTEGGNPTVDGPLPSFSS
modifications: 15N-labeled
notes: SLP65 (BLNK), human, residues 1-330 (without the C-terminal SH2 domain); also called BLNK; Src homology (SH) 2 domain-containing leukocyte protein of 65 kDa; source: E. coli BL21(DE3), purified (Ni-NTA, TEV cleavage, size exclusion); not shown: His7, N-terminal, cleaved
binding result [2]: binds
binding result [3]: binds
